# Patent US20150125397A1, “DUAL SPECIFIC BINDING PROTEINS DIRECTED AGAINST IMMUNE CELL RECEPTORS AND AUTOANTIGENS” (ABBVIE INC., priority 2013, published 2015)
# B1: DVD3755: DVD-Ig: VD1 DNA(PA4), LS linker, VD2 mIgM (B7.6); heavy SEQ ID NO 56, light 57 (antibody)
# heavy: EVQLVESGGGLVKPGGSLKLSCVASGFTFSTYAMSWVRQTPTKRLEWVATISRGGVSTYYPDTVKGRFTISRDNAKNTLYLQMSSLRSEDTAMYYCARPPTIVTTWFAYWGQGTLVTVSSASTKGPSVFPLAPQVQLKESGPGLVKPSLTLSLTCTVSGFSLNGYGVIWVRQPPGKGLEWMGVIWGNGNTNYNSTLKSRLSISRDTSKSQVFLKMNNLQTEDTAMYFCARSENYYSSPGYFAYWGQGTLVTVSS
# light: DVVMTQTPLSLPVSLGDQASISCRSSQSLVHSNGNTYLHWYLQKPGQSPKLLIYKVSNRFSGVPDRFSGSGSGTDFTLKISRVEAEDLGAYFCSQSTHVPYTFGGPTRLEIKRTVAAPNTVMTQSPTSMFISVGDRVTMNCKASQNVGSDVDWYQQKTGQSPKLLISGTSNRYTGVPDRFTGSGSGTDFTLTISNMQAEDLAVYYCLQYNYNPTFGAGTKLELKR
# B2: DVD3751: DVD-Ig: VD1 DNA(PA4), GS linker, VD2 mIgM (B7.6); heavy SEQ ID NO 48, light 49 (antibody)
# heavy: EVQLVESGGGLVKPGGSLKLSCVASGFTFSTYAMSWVRQTPTKRLEWVATISRGGVSTYYPDTVKGRFTISRDNAKNTLYLQMSSLRSEDTAMYYCARPPTIVTTWFAYWGQGTLVTVSSGGGGSGGGGSQVQLKESGPGLVKPSLTLSLTCTVSGFSLNGYGVIWVRQPPGKGLEWMGVIWGNGNTNYNSTLKSRLSISRDTSKSQVFLKMNNLQTEDTAMYFCARSENYYSSPGYFAYWGQGTLVTVSS
# light: DVVMTQTPLSLPVSLGDQASISCRSSQSLVHSNGNTYLHWYLQKPGQSPKLLIYKVSNRFSGVPDRFSGSGSGTDFTLKISRVEAEDLGAYFCSQSTHVPYTFGGPTRLEIKRGGSGGGGSGNTVMTQSPTSMFISVGDRVTMNCKASQNVGSDVDWYQQKTGQSPKLLISGTSNRYTGVPDRFTGSGSGTDFTLTISNMQAEDLAVYYCLQYNYNPTFGAGTKLELKR
# B3: DVD3766: DVD-Ig: VD1 hIgM (HB-57.3), GS linker, VD2 DNA (PA4); heavy SEQ ID NO 76, light 77 (antibody)
# heavy: QVQLQQPGAEFVKPGAPVKLSCKASGYPFTTYWVNWMKQRPGRGLEWIGRIDPYDSETLYNQKFKDKATLTVDKSSSTAYIQLSSLTSEDSAVYYCARETYDYPFAYWGQGTLVTVSSGGGGSGGGGSEVQLVESGGGLVKPGGSLKLSCVASGFTFSTYAMSWVRQTPTKRLEWVATISRGGVSTYYPDTVKGRFTISRDNAKNTLYLQMSSLRSEDTAMYYCARPPTIVTTWFAYWGQGTLVTVSS
# light: DIVMTQSPSSLAMSVGQKVTMSCKSSQSLLNSSNQKNYLAWYQQKPGQSPELLVYFASTRESGVPDRFIGSGSGTDFTLTISSVQAEDLADYFCQQHYSTPFTFGSETKLEIKRGGSGGGGSGDVVMTQTPLSLPVSLGDQASISCRSSQSLVHSNGNTYLHWYLQKPGQSPKLLIYKVSNRFSGVPDRFSGSGSGTDFTLKISRVEAEDLGAYFCSQSTHVPYTFGGPTRLEIKR
# B4: DVD3767: DVD-Ig: VD1 hIgM (HB-57.3), SS linker, VD2 DNA (PA4); heavy SEQ ID NO 78, light 79 (antibody)
# heavy: QVQLQQPGAEFVKPGAPVKLSCKASGYPFTTYWVNWMKQRPGRGLEWIGRIDPYDSETLYNQKFKDKATLTVDKSSSTAYIQLSSLTSEDSAVYYCARETYDYPFAYWGQGTLVTVSSASTKGPEVQLVESGGGLVKPGGSLKLSCVASGFTFSTYAMSWVRQTPTKRLEWVATISRGGVSTYYPDTVKGRFTISRDNAKNTLYLQMSSLRSEDTAMYYCARPPTIVTTWFAYWGQGTLVTVSS
# light: DIVMTQSPSSLAMSVGQKVTMSCKSSQSLLNSSNQKNYLAWYQQKPGQSPELLVYFASTRESGVPDRFIGSGSGTDFTLTISSVQAEDLADYFCQQHYSTPFTFGSETKLEIKRTVAAPDVVMTQTPLSLPVSLGDQASISCRSSQSLVHSNGNTYLHWYLQKPGQSPKLLIYKVSNRFSGVPDRFSGSGSGTDFTLKISRVEAEDLGAYFCSQSTHVPYTFGGPTRLEIKR
# Experiments:
# [1] = target: T1, mIgM (Mus musculus, UniProt P01872); experiment: IgM binding ELISA (mouse IgM); settings: mIgM-coated ELISA; half-log dilution 10 μg/ml-0.01 μg/ml
# T1 sequence (P01872 1-454): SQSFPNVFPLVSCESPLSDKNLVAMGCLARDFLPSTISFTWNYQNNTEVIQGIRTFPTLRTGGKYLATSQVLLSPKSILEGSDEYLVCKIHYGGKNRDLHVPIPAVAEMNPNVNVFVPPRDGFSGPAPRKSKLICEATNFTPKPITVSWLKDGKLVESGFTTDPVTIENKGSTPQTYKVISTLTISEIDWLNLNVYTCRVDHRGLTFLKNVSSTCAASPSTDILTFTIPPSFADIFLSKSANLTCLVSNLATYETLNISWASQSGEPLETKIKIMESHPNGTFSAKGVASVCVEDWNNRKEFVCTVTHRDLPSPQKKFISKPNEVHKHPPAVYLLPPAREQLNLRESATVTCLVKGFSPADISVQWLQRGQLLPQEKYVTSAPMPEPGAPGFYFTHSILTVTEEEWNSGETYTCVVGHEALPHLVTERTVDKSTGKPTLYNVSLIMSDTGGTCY
# Experimental: Reactivity of the DVD-Ig proteins with mIgM was determined by enzyme-linked immunosorbent assay (ELISA). Briefly, each well of an Ultra Cruz 96 well microtiter plate (Santa Cruz Biotechnology, Dallas, Tex.) was coated with mIgM at a concentration of 1 μg/ml in 100 μl of PBS. The plate was covered in plastic wrap and incubated overnight at 4° C. Each well of the plate was then washed 3× with 300 μl of PBST. After the final wash, 200 μl of blocking buffer (1% BSA in PBS) was added to each well and the plate incubated at RT for 2 hours. The plate was then washed as above. Rows B-H of the microtiter plate were filled with 100 μl of dilution buffer (1% BSA in PBST). The DVD-Ig proteins were then diluted to […] in dilution buffer and 147 μl of a DVD-Ig protein was added in duplicate to row A of a 96 well plate. For a ½ log dilution, 47 μl was transferred from row A to row B. The pipette tips were replaced with clean tips and 47 μl from row B was transferred to row C. The serial transfers were repeated as above until row G. To assess the binding of the secondary detection reagent to the coated IgM, the final transfer 47 μl was only transferred from G1-G10 to H1-H10 and wells H11 and H12 were left containing 100 μl of dilution buffer. To maintain a 100 μl assay volume, 47 μl was removed from wells H1-H10 and G11-G12 and discarded. After the serial dilution was completed, the plate was incubated for 1-2 hours at RT. The plate was washed as above and then 100 μl of horseradish peroxidase conjugated goat α-hIgG Fc specific, diluted 1:3,000 in dilution buffer, was added to each well. The plate was incubated for 1 hour at RT and then washed 4× as above. The plate was developed by adding 100 μl of 3′,3′,5′,5′-Tetramethylbenzidine (TMB) substrate solution to each well and incubating the plate in the dark for 10-15 minutes. The enzymatic reaction was stopped by adding 100 μl of 1M H2SO4 to each well. The plate was read at 450 nm on an EnVision 2102 multilabel reader (Perkin Elmer, Waltham, Mass.).
# DVD-Ig proteins DVD3751-DVD3760 were characterized by IgM binding assay at half-log dilution starting at 10 μg/ml-0.01 μg/ml according to the method of Example 2.5.
# IgM binding ELISA: Titrations of the DVD-Ig™ proteins (10 μg/ml to 0.01 μg/ml) were added to ELISA plates coated with murine IgM. Bound antibody was detected with biotinylated anti-human IgG and streptavidin-HRP. EC50 were calculated from the titration curve using Prism6.
# [2] = system: DNA; experiment: Antinuclear antibody (ANA) test; assay type: binding; set-up: key to ANA score, relative result: (X)-(XXX) indicates relative results; (XX): (X)-(XXX) indicates relative results; (X)-(XXX) indicates relative results; settings: for ANA score / ANA score, relative result: ANA staining at 10 μg/ml
# Experimental: The cloned BWR4 and PA4 antibodies as well as the DVD-Ig proteins were tested for ANA reactivity using the ANA test kit. Briefly, the DVD-Ig proteins and antibodies were diluted to […] in blocking buffer (1% BSA in PBS). The DVD-Ig proteins and antibodies were added to separate wells of an ANA slide at 50 μl/well and incubated in a moist chamber for 2 hours at room temperature (RT). The wells were then washed 3× with PBS. To detect bound antibodies, Alexa Fluor 488 conjugated goat α-human IgG (α-hIgG) was then added at a dilution of 1:1,000 and the slide incubated in a moist chamber for 1 hour. Unbound detecting antibody was removed by immersing the slide in a jar containing PBS and incubating for 10 minutes at RT with gentle rocking. The prior step was repeated 2× and 10 μl of Prolong® Gold Antifade was added to each well and a 24 mm×60 mm #1 cover glass seated on top. The covered slide was incubated overnight at RT and then sealed by applying clear nail polish to the edges. Binding of the DVD-Ig proteins and antibodies to the slides was assessed by fluorescence microscopy.
# DVD-Ig proteins DVD3751-DVD3760 were characterized by antinuclear antibody (ANA) staining at 10 μg/ml according to the method of Example 2.4.
# ANA: HEp-2 human tissue culture substrate slides were incubated with 5 μg/ml of the anti-DNA-IgG2a or the DVD-Ig™ binding protein for 2 hours at RT. The slides were washed and bound antibodies were detected with Alexa-488 goat anti-human antibody or DyLight 488 goat anti-mouse antibody.
# [3] = system: AM14 WT B cells; experiment: [3H]thymidine incorporation, BCR/TLR9 stimulation of AM14 WT B cells; assay type: cell-based, mouse; set-up: key to 3H incorporation AM14 WT, relative result: (X)-(XXX) indicates relative results; (XX): (X)-(XXX) indicates relative results; (X)-(XXX) indicates relative results; level of 3H incorporation / 3H incorporation AM14 WT: dose or concentration left out as unconfirmed; settings: for 3H incorporation AM14 WT: 24 hours, then 6 hours pulse
# Text: (§1) The AM14 B cell receptor (BCR) transgenic mouse has been described previously (Sweet et al. (2010) Autoimmun 43(8): 607-18). Briefly, AM14 is a BCR comprising the AM14 heavy chain and the Vk8 light chain that recognizes murine IgG2a (mIgG2a) of the “a” allotype. Between 95-98% of B cells in a mouse positive for the AM14 heavy chain and Vk8 light chain express the AM14 BCR. To generate AM14 B cells that are deficient in TLR9, TLR7 or FcγRIIB, the AM14 and Vk8 genes were bred to the appropriate knock out mice.
# (§2) Primary murine B cells were purified by positive selection using BD Imag™ CD45R/B220 magnetic particles (BD Biosciences, San Jose, Calif.). Briefly, B cells were cultured in RPMI containing, pencillin-streptomycin, β-mercaptoethanol, and 5% heat-inactivated fetal calf serum (FCS) in 96 well flat bottom plates at a density of 4×10^5 cells/well. For stimulation through the BCR and TLR9, B cells were treated with a titration of 0.3 μg/ml-0.03 μg/ml of PA4 or 5 μg/ml to 0.15 μg/ml of a DVD-Ig protein (DVD3751, DVD3752, DVD3754, DVD3755, DVD3759 and DVD3760), unless otherwise noted. Cells were also treated with 1 μg/ml 1826, an experimental ligand for TLR9, as a control. After 24 hours, the cells were pulsed for 6 hours with [3H]thymidine (Perkin Elmer, Waltham Mass.). Incorporation of [3H]thymidine was quantified via a liquid scintillation beta counter (Trilux 1450 MicroBeta, PerkinElmer) according to standard methods.
# (§3) DVD-Ig proteins DVD3751-DVD3760 were characterized by ^3H incorporation at […] according to the method of Example 2.6.
# [4] = system: AM14 TLR9−/− B cells; experiment: [3H]thymidine incorporation, BCR/TLR9 stimulation of AM14 TLR9-/- B cells; assay type: cell-based, mouse; settings: at 5 mg/ml; 24 hours, then 6 hours pulse
# Text: as §1, §2, §3
# [5] = target: Human IgM (Homo sapiens, UniProt P01871); experiment: IgM binding assay (human IgM)
# Chain of Human IgM (P01871 1-433 limits assumed): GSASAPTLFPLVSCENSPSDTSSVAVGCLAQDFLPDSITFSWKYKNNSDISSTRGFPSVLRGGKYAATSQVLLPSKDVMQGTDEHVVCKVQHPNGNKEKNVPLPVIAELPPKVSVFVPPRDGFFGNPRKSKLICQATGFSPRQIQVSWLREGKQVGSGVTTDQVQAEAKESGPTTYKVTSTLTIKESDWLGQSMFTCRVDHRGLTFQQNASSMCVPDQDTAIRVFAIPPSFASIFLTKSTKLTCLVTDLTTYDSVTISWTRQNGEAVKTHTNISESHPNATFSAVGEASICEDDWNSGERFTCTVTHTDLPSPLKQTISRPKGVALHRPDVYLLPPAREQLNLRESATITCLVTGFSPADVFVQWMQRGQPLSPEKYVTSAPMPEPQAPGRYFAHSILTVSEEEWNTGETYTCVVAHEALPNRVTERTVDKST
# Chain of Human IgM (P01591 23-159 partner): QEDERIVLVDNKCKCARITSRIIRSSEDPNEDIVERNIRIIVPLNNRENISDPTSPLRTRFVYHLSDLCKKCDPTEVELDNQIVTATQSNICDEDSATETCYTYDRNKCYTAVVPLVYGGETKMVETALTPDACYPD
Molecule,IgM Binding EC50 [1],"level of ANA staining ([2]; 10 μg/ml, among DVD3751-DVD3760)",ANA score [2],"ANA score, relative result [2]","3H incorporation AM14 WT, relative result [3]",3H incorporation AM14 WT [3],3H incorporation AM14 TLR9−/− [4],level of 3H incorporation ([3]; among DVD3751-DVD3760),potency in human IgM binding assay [5]
B1,0.09709 µg/mL,highest level of staining,4.5,(XXX),(X),(8498),(402),–,–
B2,0.1909 µg/mL,–,2,(X),(XXX),(35554),(1184),highest level of ^3H incorporation,–
B3,–,–,–,–,–,–,–,–,highest potency
B4,–,–,–,–,–,–,–,–,highest potency
